Molecular target: T1, mixed lineage kinase domain-like pseudokinase (MLKL) (human (endogenous in platelets)), Q8NB16
T1 chain: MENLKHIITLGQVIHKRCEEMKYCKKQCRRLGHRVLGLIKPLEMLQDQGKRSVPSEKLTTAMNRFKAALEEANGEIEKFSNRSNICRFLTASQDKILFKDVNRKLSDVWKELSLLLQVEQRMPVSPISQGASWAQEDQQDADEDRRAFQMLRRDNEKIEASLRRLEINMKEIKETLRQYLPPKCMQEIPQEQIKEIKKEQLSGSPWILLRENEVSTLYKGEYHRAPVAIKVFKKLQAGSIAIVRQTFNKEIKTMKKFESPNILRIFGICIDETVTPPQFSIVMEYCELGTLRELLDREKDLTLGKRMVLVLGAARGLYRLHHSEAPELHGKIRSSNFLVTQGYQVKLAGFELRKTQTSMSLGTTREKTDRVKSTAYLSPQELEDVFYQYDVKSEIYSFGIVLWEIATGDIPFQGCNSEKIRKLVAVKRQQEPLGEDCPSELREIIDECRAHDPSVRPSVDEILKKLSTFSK
Assay: western blot of platelets
Settings: remark: other sources report otherwise

B1: mixed lineage kinase domain-like pseudokinase (MLKL), Q8NB16 1-471 (natural protein)
chain: T1 chain
stoichiometry N: 8

Reference: PMC8409903
